Test results as given in the supplement of paper PMC9170038.

Tested on: MS2 coat protein
Assay: apparent KD of MS2 coat protein; designed switch direction (-1 OFF switch, 1 ON switch): -1; higher = weaker reporter binding
Summary of the method: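 Designed RNA switches sharing common flanks were transcribed on Illumina chips by stalled E. coli RNA polymerase. They were titrated with SNAP-549-labelled MS2 coat protein, from 0.7 or 1.5 nM doubling to 3 µM, in Tris-HCl pH 7.5 buffer with KCl, MgCl2, BSA, DTT, tRNA and Tween-20. Titrations ran without input, with 200 uM small-molecule ligand, or with an oligonucleotide input. The apparent KD of each design is the median over its clusters, after curve-fitting of normalised cluster fluorescence.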

[1] = Eterna round: R95, input ligand: FMN 200 uM
[2] = Eterna round: R95, input ligand: microRNA oligo, concentration not stated
[3] = Eterna round: R95, input ligand: none
[4] = input ligand: microRNA oligo, concentration not stated

AGUAACUAUCACGAAAGUGAUAGUUACAAACAGGUGAAAACAUGAGGAUCACCCAUGUCCUCAUUUGCUCGUCUUAU [Sensor 3 - 8] (puzzle: Sensor v3, turn-off variant 2)
apparent KD of MS2 coat protein [1]: 213 nM | apparent KD of MS2 coat protein [2]: 64.5 nM | apparent KD of MS2 coat protein [3]: 240 nM

ACGAUGACAGAAAGAAGUCAAAAGACAUGAGGAUCACCCAUGUAGGAUAUGGCUACGAAAAGUAGUCAGAAGGACAUGUCAUCA [Omei Exc(NG) 3 Av3] (Eterna round: R96, puzzle: Exclusion NG 3)
apparent KD of MS2 coat protein (input ligand: FMN 200 uM): 13.5 nM | apparent KD of MS2 coat protein [4]: 8.79 nM | apparent KD of MS2 coat protein (input ligand: none): 16.8 nM

AUGGACGCAGGAUAUACAUGAGGAUCACCCAUGUGAGGUUGGUAAGUAGGAAGUGAAGGUAGAAGGGCGAGAGU [JR_Exclu3_Sub098] (puzzle: Exclusion 3)
apparent KD of MS2 coat protein [1]: 209 nM | apparent KD of MS2 coat protein [2]: 84.2 nM | apparent KD of MS2 coat protein [3]: 76.8 nM

CCGGAACAUGAGGAUCACCCAUGUCAGGAUAUCUCAAAAUCGUCGAUAGACGAUAACAAGAGAAGGGACACCGG [Mat - Exclusion 1 - Eli Mod - D29] (Eterna round: R97, puzzle: Exclusion 1)
apparent KD of MS2 coat protein (input ligand: FMN 200 uM): 23.4 nM | apparent KD of MS2 coat protein (input ligand: none): 20.8 nM

GCAGUGCGAGGAUAUACAUGAGGAUCACCCAUGUGAGAAUAAUAAGUGAGGAAGAAAAGUAGAAGGCGCGUUGG [Mat - Exclusion 3 - Mod of Salish D67] (puzzle: Exclusion 3)
apparent KD of MS2 coat protein [1]: 103 nM | apparent KD of MS2 coat protein [2]: 41.1 nM | apparent KD of MS2 coat protein [3]: 46.8 nM

CAAGCUAUUGUAGCAACUAACAUGAGGAUCACCCAUGUAGGCAUAACUUACCUAGCUCGUUUAUACAAAUCAAUUGU [Eternabot (L2) Solution 11] (Eterna round: R97, puzzle: Sensor, turn-off variant 1)
apparent KD of MS2 coat protein (input ligand: FMN 200 uM): 13.1 nM | apparent KD of MS2 coat protein (input ligand: none): 17.6 nM

CGAUAUUAUGUCAGGAUAUACAUUGCGAAAGCAAUGUAGAAGGGACAUGAGGAUCACCCAUGUCCUAACUAUCG [Omei A 2] (puzzle: Brourd's mod of Exclusion 4)
apparent KD of MS2 coat protein [2]: 12.9 nM

UGAUCAGACCGAGGAUAUAUAUGGAGGACCCACGUGAGUGGGUCCACUACAUGAGGAUCACCCAUGUAGAAGGCGGUCUGAUCU [JL ENG2 1.86] (Eterna round: R96, puzzle: Exclusion NG 2)
apparent KD of MS2 coat protein (input ligand: FMN 200 uM): 29.5 nM | apparent KD of MS2 coat protein [4]: 9.64 nM | apparent KD of MS2 coat protein (input ligand: none): 13.3 nM

CUGGUCCGAGGAUAUAUUAAGUGAUACAUGAGGAUCACCCAUGUUAUUUGAUGGAUAUUAAUAGAAGGCGGACUAG [Mat - Exclusion 5 - JL mod - D75] (puzzle: Exclusion 5)
apparent KD of MS2 coat protein [1]: 31.9 nM | apparent KD of MS2 coat protein [2]: 18.8 nM | apparent KD of MS2 coat protein [3]: 28.7 nM

GACCCUAGGGUCAGAUGCACAAGCUUUUUGCUCGUUUUAACAUGAGGAUCACCCAUGUCUAGUGGAUCUGAUCGGGC [Erorente] (puzzle: Sensor v3, turn-off variant 2)
apparent KD of MS2 coat protein [1]: 20.6 nM | apparent KD of MS2 coat protein [2]: 88.8 nM | apparent KD of MS2 coat protein [3]: 18.2 nM

CUGAACCCGGUAGGAUAUAUUGUGGGCGGGCGUGGAACGACAUGAGGAUCACCCAUGUGAUUGAGGUAGAAGGGCCGAGAGGUU [Excl-NG2-LRO17] (Eterna round: R96, puzzle: Exclusion NG 2)
apparent KD of MS2 coat protein (input ligand: FMN 200 uM): 42.6 nM | apparent KD of MS2 coat protein [4]: 31 nM | apparent KD of MS2 coat protein (input ligand: none): 42.8 nM

UUAUACCUAGGAUAUACCUUUGGGUGUAGCCUAAUGUCUGGACAUGAGGAUCACCCAUGUAGAAGGAGGCGAAA [EX2 A.7] (Eterna round: R97, puzzle: Exclusion 2)
apparent KD of MS2 coat protein (input ligand: FMN 200 uM): 244 nM | apparent KD of MS2 coat protein (input ligand: none): 78 nM

GGCACACAUGAGGAUCACCCAUGUGAGGAUAUGGUGCGAUCGUCGAUAGACGAUAGCACCAGAAGGCACAUGCC [Mat - Exclusion 1 - Eli Mod - D5] (Eterna round: R97, puzzle: Exclusion 1)
apparent KD of MS2 coat protein (input ligand: FMN 200 uM): 33.6 nM | apparent KD of MS2 coat protein (input ligand: none): 15.4 nM
